B1: regulatory (R) domain of the N-methyl-D-aspartate receptor NR2A subunit, NR2A(23-389) (domain or fragment)
chain: not shown
B2: regulatory (R) domain of the N-methyl-D-aspartate receptor NR2B subunit, NR2B(27-390) (domain or fragment)
chain: not shown
B3: regulatory (R) domain of the N-methyl-D-aspartate receptor NR1 subunit, NR1(19-380) (domain or fragment)
chain: not shown

Assays:
SEC = molecular target: the molecule itself; assay: SEC
[1] = molecular target: B2; assay: co-IP
[2] = molecular target: B1; assay: co-IP

Binder | percentage of the monomer form (SEC) [%] | binding result [1] | binding result [2]
B1 | 73 |  | 
B2 | 71 |  | 
B3 | 37 | binds | binds
